In paper PMC4022648:
Several values for one entry are separate records, joined by “and”; a condition that tells them apart may be missing. Equal values may be shown once.

Assays:
[1] = target: naïve Hsp60 (human Hsp60 with its mitochondrial import signal) (human) (UniProt P10809); assay: native gel or EMSA; Blue native PAGE, 4-16% Bis-Tris gels, sample buffer with 1% digitonin and 0.5% DDM, pH 7.2, Coomassie G-250; naïve Hsp60 at 1.9-20.7 µM, GroEL at 1.0-18.9 µM
[2] = target: naïve Hsp60 (human Hsp60 with its mitochondrial import signal) (human) (UniProt P10809); assay: SAXS; 20 °C, Guinier analysis; naïve Hsp60 at 23.8 µM
[3] = target: naïve Hsp60 (human Hsp60 with its mitochondrial import signal) (human) (UniProt P10809); assay: SEC; HPLC size exclusion, Shodex 806 and 804 in series, 24 °C, 20 mM Tris-HCl pH 8 + 10% glycerol; naïve Hsp60 at 0.8-16.0 µM, compared with GroEL at 7.0 µM and BSA
[4] = target: naïve Hsp60 (human Hsp60 with its mitochondrial import signal) (human) (UniProt P10809); assay: static light scattering; Rayleigh ratio at 90° divided by concentration; naïve Hsp60 at 1.6-47.6 µM; compared with ideal lines for tetradecamer (882 kDa) and heptamer (441 kDa)
[5] = target: naïve Hsp60 (human Hsp60 with its mitochondrial import signal) (human) (UniProt P10809); assay: SAXS; 20 °C, Guinier analysis; naïve Hsp60 at 79.5 µM, GroEL at 52.5 µM

naïve Hsp60 (human Hsp60 with its mitochondrial import signal) (from UniProt P10809 27-573) (natural protein)
stoichiometry N [1]: 7 and 14 | stoichiometry N [2]: 7 and 14 | stoichiometry N [3]: 7 and 14 | stoichiometry N [4]: 7 and 14 | stoichiometry N [5]: 14
